Reference: patent US20140255415A1 (Novartis, published 2014)

Columns and labels:
[1] = target: T1, human LINGO-2 expressed on CHO-K1 cells (CHO-K1-hLINGO-2) (human, UniProt Q7L985 26-606); assay: apparent KD, FACS saturation binding on CHO-K1-hLINGO-2 cells, Fab format
T1 construct: range 26-606; not shown: 2 amino acid residue linker
T1 sequence (looked up): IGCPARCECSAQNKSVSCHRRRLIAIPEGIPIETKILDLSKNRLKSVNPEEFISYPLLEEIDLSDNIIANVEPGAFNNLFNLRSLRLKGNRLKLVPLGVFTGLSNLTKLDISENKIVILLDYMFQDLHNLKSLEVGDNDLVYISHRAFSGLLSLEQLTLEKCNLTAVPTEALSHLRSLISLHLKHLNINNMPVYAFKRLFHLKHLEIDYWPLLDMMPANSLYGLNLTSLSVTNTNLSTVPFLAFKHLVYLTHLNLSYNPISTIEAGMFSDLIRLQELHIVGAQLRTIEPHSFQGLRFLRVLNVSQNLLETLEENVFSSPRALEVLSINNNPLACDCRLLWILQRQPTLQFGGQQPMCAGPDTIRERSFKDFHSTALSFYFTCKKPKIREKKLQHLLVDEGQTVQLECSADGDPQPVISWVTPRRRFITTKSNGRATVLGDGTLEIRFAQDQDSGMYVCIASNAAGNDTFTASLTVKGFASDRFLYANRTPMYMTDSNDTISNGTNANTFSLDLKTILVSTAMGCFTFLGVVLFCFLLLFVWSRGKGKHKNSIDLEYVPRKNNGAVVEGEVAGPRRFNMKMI

[2] = target: T2, rat LINGO-1 expressed on CHO-K1 cells (CHO-K1-rLINGO-1) (rat, UniProt A0A8I5ZPI2 34-614); assay: apparent KD, FACS saturation binding on CHO-K1-rLINGO-1 cells, Fab format
T2 construct: range 34-614; not shown: 2 amino acid residue linker
T2 sequence: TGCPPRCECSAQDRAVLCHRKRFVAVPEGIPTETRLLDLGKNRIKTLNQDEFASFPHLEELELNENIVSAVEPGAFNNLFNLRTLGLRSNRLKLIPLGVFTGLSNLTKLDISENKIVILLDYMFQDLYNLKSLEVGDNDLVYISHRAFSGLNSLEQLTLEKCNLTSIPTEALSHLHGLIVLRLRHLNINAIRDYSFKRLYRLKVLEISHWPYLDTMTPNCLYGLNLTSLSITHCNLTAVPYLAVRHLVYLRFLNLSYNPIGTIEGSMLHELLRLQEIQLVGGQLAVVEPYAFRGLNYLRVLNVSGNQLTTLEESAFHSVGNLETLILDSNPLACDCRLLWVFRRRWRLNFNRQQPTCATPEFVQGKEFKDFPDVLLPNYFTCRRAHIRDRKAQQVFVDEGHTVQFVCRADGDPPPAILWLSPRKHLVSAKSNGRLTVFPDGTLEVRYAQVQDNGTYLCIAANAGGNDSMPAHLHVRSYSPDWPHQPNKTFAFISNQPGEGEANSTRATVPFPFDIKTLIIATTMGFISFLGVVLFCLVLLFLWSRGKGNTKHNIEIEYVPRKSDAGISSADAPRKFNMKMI
Procedure: Cell based affinity of anti-LINGO-1 specific antibodies is determined by FACS saturation binding experiments. […] Otherwise the staining procedure is done identical to the FACS staining procedure described above.
In detail, CHO-K1-hLINGO-1, CHO-K1-cmLINGO-1 or CHO-K1-rLINGO-1 are detached from culture flasks by versene, washed with FACS buffer and resuspended in FACS buffer. Purified anti-LINGO-1 Fabs are serially diluted in FACS buffer and spread into round bottom 96-well microtiter plates (NUNC™, Wiesbaden, Germany). For each concentration, duplicate wells are incubated with 1.25×10⁴ cells for 30-60 min on ice in a total volume of 100 μl.

B1: anti-LINGO-1 Fab 4785 (Fab, V domains shown)
VH: QVQLQQSGPGLVKPSQTLSLTCAISGDSVSDNSAAWSWIRQSPGRGLEWLGLIYLRSKWDNDYAVSVKSRITINPDTSKNQFSLQLNSVTPEDTAVYYCARTGRADEFDVWGQGTLVTVSS
VL: DIVLTQPPSVSGAPGQRVTISCSGSSSNIGNNYVSWYQQLPGTAPKLLISRNSKRPSGVPDRFSGSKSGTSASLAITGLQSEDEADYYCSTYDTFSIVFGGGTKLTVLG
Work on B1 yielded a Kd [1] of 1.21 nM and a Kd [2] of 0.26 nM.
